experiment: soluble on expression in E. coli; label from the status in PepcDB or PDB records

Sequence	soluble on expression in E. coli
VVVTDMGILAKRSVDGSLDIFVQSLSQGLPIANAKVDVVGRNGLSVAEGFTDLGGHVHLPKLGQLRREKRPLFYRVEKAGDVSFLPIGDWRRELDMSRFDIGGSNESEDPNTLSAYLFTDRGLYRPGETAHVASLVRSQSWGASLDGLPVKMVVTDPRGIDVLDRTFNLDSSGFNSLDFSSTEAAVAGEYTASLSLIRDKHNLTRLGEESFKVRDFEPDRIKVRVTLGATESGTSIGWLKPEEVSAKVQAEQLFGGPAGDRRVTGEMVLSPTDISFKELPGYYFGVQGE	not soluble
WKITDEQRQYYVNQFKTIQPDLNGFIPGSAAKEFFTKSKLPILELSHIWELSDFDKDGALTLDEFCAAFHLVVARKNGYDLPEKLPESLMPK	soluble
WSQNEGKSVIPVQITKENSAYLADALLLDTSKEAQDAVENHSMMLSAKELFPVLETMKQIRQYGDSTDKNYGYRDEGSMFNSGNTAMYINGVWASKLIDEKIDACYAPFPGKNGSTIASSSVCLGYIVGNTGNQETMDASVEFLKYMLSEKVQKRILLETGQMPSSPKIHLEEYKEQIPRMCNAVEAIRGADRIIEVPDNLWTADQLENFRNQIMEVLNGTLDEEQFCTNLYQ	not soluble
YEMSSVGVINLRNMYSTYDPTEVKGKINEGPPFSGSLFYKNIPYGNSSIELKVEMNSVEKANFFSGKRVDIFTLEYSPPSNSNIKKNSYGGITLSDGNRIDKKNIPVNIFIDGVQQKYSYTDISTVSTDKKEVTIQELDVKSRYYLQKHFNIYGFGDVKDFGRSSRFQSGFEEGNIIFHLNSGERISYNMFDTGHGDRESMLKKYSDNKTAYSDQLHIDIYLVKFNK	soluble
YHETVIYEAHVKGMTQTHPSIPPELRGTYAGLAHPVIIDHLNELNVTAVELMPVHQFLHDSRLLDLGLRNYWGYNTFGFFAPHHQYASTRQAGSAVAEFKTMVRSLHEAGIEVILDVVYNHTAEGNHLGPTINFRGIDNTAYYRLMDHDLRFYKDFTGTGNSLNARHPHTLQLIMDSLRYWVIEMHVDGFRFDLASTLARELHDVDRLSAFFDLVQQDPVVSQVKLIAEPWDVGEGGYQVGNFPGLWTEWNGKYRDTVRDYWRGEPATLGEFASRLTGSSDLYEATGRRPSASINFVTAHDGFTLNDLVSYNDKHNEANGENNRDGESYNRSWNCGVEGPTDDPDILALRARQMRNMWATLMVSQGTPMIAHGDEIGRTQYGNNNVYCQDSELSWMDWSLVDKNADLLAFARKATTLRKNHKVFRRRRFFEGEPIRSGDEVRDIAWLTPSGREMTHEDWGRGFDRCVAVFLNGEAITAPDARGERVVDDSFLLCFNAHDHDVEFVMPHDGYAQQWTGELDTNDPVGDIDLTVTATDTFSVPARSLLVLRKTL	soluble
YLFSSTAVASDESRPKIGLVLAGGGAKGAAHIGVLKALEEMHIPVDYITGTSMGAYVGGLYASGMSADEIEAFIDTVDWNSGFVDKVERSERQIRDKEYEDRYQIGTDIGFSFTELKAPKGFVQGQTMAKILRTTSDNIPYLNSFDQLPIPFRAVATDIEKLEPVVLDKGNLAEAMMASMSVPGALPPAEYDGRLLVDGGVVNNMPVDVV	not soluble
YLSDVISSPQFEQAKSPTTVVLGQDIAGEAVIADIAKMPHVLVAGTTGSGKSVGVNVMILSMLYKASPEDLRFIMIDPKMLELSIYEGIPHLLAEVVTDMKDASNALRWCVGEMERRYKLMSALGVRNVKGFNEKLKMAAEAGHPIHDPFWQEGDSMDTEPPLLEKLPYIVVVVDEFADLMMVVGKKVEELIARLAQKARAAGIHLILATQRPSV	not soluble
YLYVYKGVYATDEDVPVNPLTGERLRMGGNTSTQAYFKAGDPIWVDVNGDYIIDEKDKVIVGNSQPRMTGGISINLRYKAFSINTNCSFTLRRDIINKALADRFRAYGTPVAGKVNLTGSGALTPIEAYNFWTEDNIYAQYPNPFDYTRSSIIQPFRYDQTLFMEDGSYFKINGISVAYTIPKKMLDFFRISRCQLNFSMNNIYTFSKYSGINPENVNNLGYDTSGGYPNGRTVTFGVSMDF	not soluble
YPPSMDWRKKGNFVSPVKNQGSCGSCWTFSTTGALESAVAIATGKMLSLAEQQLVDCAQNFNNHGCQGGLPSQAFEYIRYNKGIMGEDTYPYKGQDDHCKFQPDKAIAFVKDVANITMNDEEAMVEAVALYNPVSFAFEVTNDFLMYRKGIYSSTSCHKTPDKVNHAVLAVGYGEENGIPYWIVKNSWGPQWGMNGYFLIERGKNMCGLAACASYPIPLV	soluble
YSFIGSPVFSREFNISEMREYYLSFFEARGHTRINRYPVVARWRDDIYLTIASIADFQPFVTSGQVPPPANPLTISQPCIRLNDLDSVGRSGRHLTNFEMMAHHAFNRRDNEIYWKEHTLELCDELLNSLKVNPLAVTYKEEPWAGGGNAGPCVEVIVHGLELATLVFMDLKTDKKGDIEIKGETYSKMDNYIVDTGYGLERFVWASRGSPTIYDALFPGIVNELMGLAGIEHELNDSEYANI	not soluble
YTEEFDPSKYGMADSYDEQGNYIFPEGFDPETNEWLEGFDEQRQAWEARYAESERRFQLHTVQIEKNRVAAAEAAAAGEATNYSSESAEAAPAAANTEAEGGSLASDEQLAALREKLAGN	not soluble

From the DeepSol protein solubility set
